Results: patent publication US7348154B2, “IGF binding proteins” (Genentech, Inc., priority 2003, dated 2008)

Tests used:
[1] = molecular target: T1, miniBP-3 fusion protein (Homo sapiens, UniProt P17936); experiment: BIAcore competition: bp15 versus immobilized biotinylated IGF-I for binding to miniBP-3 fusion protein; settings: 1.17 to 300 µM bp15, 1 µM miniBP-3 fusion; exact affinity not determined due to lack of saturation
T1 construct: made in house; host or cells: E. coli BL21, vector pET21a; purified on IgG Sepharose
T1 sequence (P17936 74-126, added parts left off): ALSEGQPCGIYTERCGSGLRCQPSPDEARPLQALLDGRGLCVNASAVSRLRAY
Protocol: (§1) Peptide bp15 ([…]) (SEQ ID NO:11) was identified by phage display (Lowman et al., Biochemistry, 1998, supra). […] Therefore, bp15 was tested to see if it would bind to the miniBP-3 fusion. Compare FIGS. 7 and 8 for competitive binding data for bp15 to IGFBP-3 and to the miniBP-3 fusion, respectively.

[2] = molecular target: T2, native-sequence human IGFBP-3 (Homo sapiens, UniProt P17936, A32G); experiment: BIAcore competition: bp15 versus immobilized biotinylated IGF-I and -II for binding to IGFBP-3; settings: 15 nM to 100 µM bp15, 20 nM IGFBP-3, 1 hour at room temperature
T2 construct: “wild-type IGFBP-3,” and “full-length IGFBP-3” is wild-type human IGFBP-3; made in house; host or cells: E. coli BL21, vector pET21a
T2 sequence (P17936 28-291 A32G): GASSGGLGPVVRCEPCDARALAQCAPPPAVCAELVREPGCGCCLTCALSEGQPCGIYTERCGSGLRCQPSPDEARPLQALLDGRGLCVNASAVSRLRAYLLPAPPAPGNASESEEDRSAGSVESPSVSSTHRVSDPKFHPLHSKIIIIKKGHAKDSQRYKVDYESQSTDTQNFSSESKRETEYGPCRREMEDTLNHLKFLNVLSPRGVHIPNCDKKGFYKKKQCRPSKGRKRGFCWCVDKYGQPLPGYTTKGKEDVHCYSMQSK
Protocol: A total of 15 nM to 100:M bp15 peptide and 20 nM native-sequence human IGFBP-3 were incubated for 1 hour at room temperature before injection over immobilized biotinylated native-sequence human IGF-I and -II.
Competition binding experiments were carried out as follows. 15 nM to 100:M bp15 peptide and 20 nM IGFBP-3 were incubated for 1 hour at room temperature before injection at 20:l/min in PBST over immobilized biotinylated IGF-I and -II. Equilibrium binding data was plotted in GraphPad Prism™ software and fit to a one-site competition-binding model.
as §1

[3] = molecular target: native-sequence human IGF-II (Homo sapiens, UniProt P01344); experiment: BIAcore kinetic analysis of binding to IGF-II
Sequence of native-sequence human IGF-II (P01344 25-91 limits assumed): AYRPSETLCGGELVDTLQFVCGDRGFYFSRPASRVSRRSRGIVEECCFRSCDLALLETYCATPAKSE

[4] = molecular target: native-sequence human IGF-I (Homo sapiens, UniProt P05019); experiment: BIAcore kinetic analysis of binding to IGF-I
Sequence of native-sequence human IGF-I (P05019 49-118 limits assumed): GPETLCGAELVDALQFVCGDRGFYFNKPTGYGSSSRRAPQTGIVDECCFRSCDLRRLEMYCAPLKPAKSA

[5] = IGF-II injected over immobilized wild-type IGFBP-3, 25° C., 1:1 Langmuir model
[6] = wild-type IGFBP-3, calculated as kd/ka
[7] = IGF-I injected over immobilized wild-type IGFBP-3, 25° C., 1:1 Langmuir model

ka [3, 5] | kd [3, 5] | Kd [3, 6] | ka [4, 7] | kd [4, 7] | Kd [4, 6] | Substance | binding to miniBP-3 fusion [1] | competition with IGF-I and -II for binding to IGFBP-3 [2]
– | – | – | – | – | – | SEEVCWPVAEWYLCN (Sequence is synthesized) [bp15] | does bind to the miniBP-3 fusion, but with reduced affinity compared to wild-type IGFBP-3 | competes with IGF-I and -II for binding to IGFBP-3
348 ± 1.02 ×10^4 M^−1 s^−1 | 4.07 ± 0.05 ×10^−4 s^−1 | 0.12 ± 0.001 nM | 715 ± 3.66 ×10^4 M^−1 s^−1 | 7.58 ± 0.07 ×10^−4 s^−1 | 0.11 ± 0.001 nM | Wild-type IGFBP-3: wild-type human IGFBP-3 (SEQ ID NO:1 or 12), produced in E. coli and refolded | – | –
